Laboratory results from patent publication US20260337278 (published 2026).

B1: SI-95X14 (antibody)
chain 1: not shown
chain 2: DIQMTQSPSSLSASVGDRVTITCRSSQNIVHSNGNTYLDWYQQTPGKAPKLLIYKVSNRFSGVPSRFSGSGSGTDFTFTISSLQPEDIATYYCFQYSHVPWTFGQGTKLQITGGGGSGGGGSGGGGSQVQLQQSGAEVKKPGSSVKVSCKASGYTFTNYYIYWVRQAPGQGLEWIGGINPTSGGSNFNEKFKTRVTITADESSTTAYMELSSLRSEDTAFYFCTRQGLWFDSDGRGFDFWGQGTTVTVSSSGSGSGGGGGSGGGGSGGGGSDILMTQSPSSMSVSLGDTVSITCHSSQDINSNIGWLQQRPGKSFKGLIYHGTNLDDEVPSRFSGSGSGADYSLTISSLESEDFADYYCVQYAQFPWTFGGGTKLEIKRTVAAPSVFIFPPSDEQLKSGTASVVCLLNNFYPREAKVQWKVDNALQSGNSQESVTEQDSKDSTYSLSSTLTLSKADYEKHKVYACEVTHQGLSSPVTKSFNRGEC
B2: SI-95X12 (antibody)
chain 1: not shown
chain 2: QVQLQQSGAEVKKPGSSVKVSCKASGYTFTNYYIYWVRQAPGQGLEWIGGINPTSGGSNFNEKFKTRVTITADESSTTAYMELSSLRSEDTAFYFCTRQGLWFDSDGRGFDFWGQGTTVTVSSGGGGSGGGGSGGGGSDIQMTQSPSSLSASVGDRVTITCRSSQNIVHSNGNTYLDWYQQTPGKAPKLLIYKVSNRFSGVPSRFSGSGSGTDFTFTISSLQPEDIATYYCFQYSHVPWTFGQGTKLQITGGGGSGSGSGGGGGSGGGGSGGGGSDILMTQSPSSMSVSLGDTVSITCHSSQDINSNIGWLQQRPGKSFKGLIYHGTNLDDEVPSRFSGSGSGADYSLTISSLESEDFADYYCVQYAQFPWTFGGGTKLEIKRTVAAPSVFIFPPSDEQLKSGTASVVCLLNNFYPREAKVQWKVDNALQSGNSQESVTEQDSKDSTYSLSSTLTLSKADYEKHKVYACEVTHQGLSSPVTKSFNRGEC
B3: SI-95X16 (antibody)
chain 1: not shown
chain 2: DIQMTQSPSSLSASVGDRVTITCRSSQNIVHSNGNTYLDWYQQTPGKAPKLLIYKVSNRFSGVPSRFSGSGSGTDFTFTISSLQPEDIATYYCFQYSHVPWTFGQGTKLQITGGGGSGGGGSGGGGSQVQLQQSGAEVKKPGSSVKVSCKASGYTFTNYYIYWVRQAPGQGLEWIGGINPTSGGSNFNEKFKTRVTITADESSTTAYMELSSLRSEDTAFYFCTRQGLWFDSDGRGFDFWGQGTTVTVSSGGGGSGGGGSGSGSGGGGGSGGGGSGGGGSDILMTQSPSSMSVSLGDTVSITCHSSQDINSNIGWLQQRPGKSFKGLIYHGTNLDDEVPSRFSGSGSGADYSLTISSLESEDFADYYCVQYAQFPWTFGGGTKLEIKRTVAAPSVFIFPPSDEQLKSGTASVVCLLNNFYPREAKVQWKVDNALQSGNSQESVTEQDSKDSTYSLSSTLTLSKADYEKHKVYACEVTHQGLSSPVTKSFNRGEC
B4: SI-95X13 (antibody)
chain 1: not shown
chain 2: QVQLQQSGAEVKKPGSSVKVSCKASGYTFTNYYIYWVRQAPGQGLEWIGGINPTSGGSNFNEKFKTRVTITADESSTTAYMELSSLRSEDTAFYFCTRQGLWFDSDGRGFDFWGQGTTVTVSSGGGGSGGGGSGGGGSDIQMTQSPSSLSASVGDRVTITCRSSQNIVHSNGNTYLDWYQQTPGKAPKLLIYKVSNRFSGVPSRFSGSGSGTDFTFTISSLQPEDIATYYCFQYSHVPWTFGQGTKLQITGGGGSGGGGSGSGSGGGGGSGGGGSGGGGSDILMTQSPSSMSVSLGDTVSITCHSSQDINSNIGWLQQRPGKSFKGLIYHGTNLDDEVPSRFSGSGSGADYSLTISSLESEDFADYYCVQYAQFPWTFGGGTKLEIKRTVAAPSVFIFPPSDEQLKSGTASVVCLLNNFYPREAKVQWKVDNALQSGNSQESVTEQDSKDSTYSLSSTLTLSKADYEKHKVYACEVTHQGLSSPVTKSFNRGEC
B5: SI-95X11 (antibody)
chain 1: not shown
chain 2: QVQLQQSGAEVKKPGSSVKVSCKASGYTFTNYYIYWVRQAPGQGLEWIGGINPTSGGSNFNEKFKTRVTITADESSTTAYMELSSLRSEDTAFYFCTRQGLWFDSDGRGFDFWGQGTTVTVSSGGGGSGGGGSGGGGSDIQMTQSPSSLSASVGDRVTITCRSSQNIVHSNGNTYLDWYQQTPGKAPKLLIYKVSNRFSGVPSRFSGSGSGTDFTFTISSLQPEDIATYYCFQYSHVPWTFGQGTKLQITSGSGSGGGGGSGGGGSGGGGSDILMTQSPSSMSVSLGDTVSITCHSSQDINSNIGWLQQRPGKSFKGLIYHGTNLDDEVPSRFSGSGSGADYSLTISSLESEDFADYYCVQYAQFPWTFGGGTKLEIKRTVAAPSVFIFPPSDEQLKSGTASVVCLLNNFYPREAKVQWKVDNALQSGNSQESVTEQDSKDSTYSLSSTLTLSKADYEKHKVYACEVTHQGLSSPVTKSFNRGEC
B6: SI-95X15 (antibody)
chain 1: not shown
chain 2: DIQMTQSPSSLSASVGDRVTITCRSSQNIVHSNGNTYLDWYQQTPGKAPKLLIYKVSNRFSGVPSRFSGSGSGTDFTFTISSLQPEDIATYYCFQYSHVPWTFGQGTKLQITGGGGSGGGGSGGGGSQVQLQQSGAEVKKPGSSVKVSCKASGYTFTNYYIYWVRQAPGQGLEWIGGINPTSGGSNFNEKFKTRVTITADESSTTAYMELSSLRSEDTAFYFCTRQGLWFDSDGRGFDFWGQGTTVTVSSGGGGSGSGSGGGGGSGGGGSGGGGSDILMTQSPSSMSVSLGDTVSITCHSSQDINSNIGWLQQRPGKSFKGLIYHGTNLDDEVPSRFSGSGSGADYSLTISSLESEDFADYYCVQYAQFPWTFGGGTKLEIKRTVAAPSVFIFPPSDEQLKSGTASVVCLLNNFYPREAKVQWKVDNALQSGNSQESVTEQDSKDSTYSLSSTLTLSKADYEKHKVYACEVTHQGLSSPVTKSFNRGEC
B7: SI-95X9 (antibody)
chain 1: not shown
chain 2: DILMTQSPSSMSVSLGDTVSITCHSSQDINSNIGWLQQRPGKSFKGLIYHGTNLDDEVPSRFSGSGSGADYSLTISSLESEDFADYYCVQYAQFPWTFGGGTKLEIKRTVAAPSVFIFPPSDEQLKSGTASVVCLLNNFYPREAKVQWKVDNALQSGNSQESVTEQDSKDSTYSLSSTLTLSKADYEKHKVYACEVTHQGLSSPVTKSFNRGEC
B8: SI-95X7 (antibody)
chain 1: not shown
chain 2: B7 chain 2
B9: SI-95X8 (antibody)
chain 1: not shown
chain 2: B7 chain 2
B10: SI-95X4 (antibody)
chain 1: not shown
chain 2: B7 chain 2
B11: SI-95X10 (antibody)
chain 1: not shown
chain 2: B7 chain 2
B12: SI-95X5 (antibody)
chain 1: not shown
chain 2: B7 chain 2
B13: SI-95X6 (antibody)
chain 1: not shown
chain 2: B7 chain 2

Target: EGFRvIII (human, UniProt P00533)
Assay: BLI

| Kd | Binder |
| --- | --- |
| 0.428 nM | B1 |
| 7.8 nM | B2 |
| 19.4 nM | B3 |
| 8.77 nM | B4 |
| 4.87 nM | B5 |
| 0.175 nM | B6 |
| 6.16 nM | B7 |
| 8.41 nM | B8 |
| 6.97 nM | B9 |
| 5.52 nM | B10 |
| 7 nM | B11 |
| 7.94 nM | B12 |
| 6.35 nM | B13 |
